Experiments:
[1] = target: T1, ALIX, full-length, Cy3-labeled (human, UniProt Q8WUM4 1-868, sulpho-Cy3 maleimide on native surface-exposed cysteines); assay: recruitment to giant unilamellar vesicles (GUVs), confocal fluorescence microscopy; ALIX pathway: ALG-2 200 nM, ALIX 100 nM, with or without CHMP4B 10 nM, incubated 15 min in reaction buffer (25 mM Hepes pH 7.4, 125 mM NaCl, 0.2 mM TCEP), then added to 30% DOPS GUVs and imaged after 15 min at room temperature; read-out: puncta on the GUV periphery and their colocalization; settings: both partners purified
T1 construct: ALIX (PDCD6IP), ESCRT accessory protein with Bro1 domain, V domain and proline-rich domain; also called ALIX (Cy3); source: HEK293 cells, purified (StrepTactin Sepharose, gel filtration)
T1 sequence (looked up): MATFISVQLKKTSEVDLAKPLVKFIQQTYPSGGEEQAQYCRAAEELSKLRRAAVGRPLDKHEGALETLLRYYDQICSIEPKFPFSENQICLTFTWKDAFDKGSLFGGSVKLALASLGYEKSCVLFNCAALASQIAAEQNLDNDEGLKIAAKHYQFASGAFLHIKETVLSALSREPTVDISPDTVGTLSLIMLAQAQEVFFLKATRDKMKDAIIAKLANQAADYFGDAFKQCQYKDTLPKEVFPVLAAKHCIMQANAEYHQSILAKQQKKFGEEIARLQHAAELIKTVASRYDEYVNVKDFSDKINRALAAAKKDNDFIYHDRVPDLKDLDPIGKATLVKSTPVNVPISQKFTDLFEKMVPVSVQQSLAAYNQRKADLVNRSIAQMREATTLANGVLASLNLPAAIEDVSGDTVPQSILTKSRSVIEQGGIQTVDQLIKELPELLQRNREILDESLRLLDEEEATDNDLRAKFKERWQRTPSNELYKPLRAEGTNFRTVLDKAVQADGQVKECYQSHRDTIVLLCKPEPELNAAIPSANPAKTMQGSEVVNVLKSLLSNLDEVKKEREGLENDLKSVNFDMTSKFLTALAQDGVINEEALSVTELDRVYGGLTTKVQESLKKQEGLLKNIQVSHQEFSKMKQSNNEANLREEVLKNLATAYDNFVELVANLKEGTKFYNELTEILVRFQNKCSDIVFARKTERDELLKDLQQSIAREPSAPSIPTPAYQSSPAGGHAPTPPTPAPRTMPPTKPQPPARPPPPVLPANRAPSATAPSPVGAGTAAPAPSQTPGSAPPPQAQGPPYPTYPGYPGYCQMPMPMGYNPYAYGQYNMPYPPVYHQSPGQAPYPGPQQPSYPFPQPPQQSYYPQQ

[2] = target: T2, ESCRT-I complex (TSG101, VPS28, VPS37B, MVB12A), Cy3-labeled (human, UniProt Q99816 1-390; Q9UK41 1-221; Q9H9H4 1-285; Q96EY5 1-273); assay: recruitment to giant unilamellar vesicles (GUVs), confocal fluorescence microscopy; ESCRT-I/II pathway: ALG-2 200 nM, ESCRT-I (Cy3) 50 nM, with or without ESCRT-II 200 nM and CHMP6 (Atto 488) 400 nM, incubated 15 min in reaction buffer, then 30% DOPS GUVs added and imaged after 15 min; ESCRT-I kept at a concentration at which it did not bind GUVs on its own; settings: both partners purified
T2 construct: TSG101, subunit of human ESCRT-I; VPS28, subunit of human ESCRT-I; VPS37B, subunit of human ESCRT-I; MVB12A, subunit of human ESCRT-I; Labeled with sulpho-Cy3 maleimide on native surface-exposed cysteines; It calls human ESCRT-I a soluble heterotetramer; also called ESCRT-I (Cy3); source: HEK293 cells, purified (StrepTactin Sepharose, gel filtration); copies: + + +
T2 sequence (Q99816 whole entry, chain 1 of 4, other chains not shown): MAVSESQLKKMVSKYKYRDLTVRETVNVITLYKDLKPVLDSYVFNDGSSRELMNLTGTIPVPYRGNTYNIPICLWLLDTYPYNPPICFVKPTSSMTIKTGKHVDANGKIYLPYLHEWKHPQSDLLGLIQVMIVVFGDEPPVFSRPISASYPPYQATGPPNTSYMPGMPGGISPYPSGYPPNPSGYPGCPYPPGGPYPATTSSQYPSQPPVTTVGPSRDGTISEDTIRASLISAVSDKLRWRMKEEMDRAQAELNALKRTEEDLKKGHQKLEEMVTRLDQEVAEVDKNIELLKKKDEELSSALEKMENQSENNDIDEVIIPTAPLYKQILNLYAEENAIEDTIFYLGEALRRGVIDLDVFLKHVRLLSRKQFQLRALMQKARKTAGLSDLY
T2 sequence (Q9UK41 whole entry, chain 2 of 4, other chains not shown): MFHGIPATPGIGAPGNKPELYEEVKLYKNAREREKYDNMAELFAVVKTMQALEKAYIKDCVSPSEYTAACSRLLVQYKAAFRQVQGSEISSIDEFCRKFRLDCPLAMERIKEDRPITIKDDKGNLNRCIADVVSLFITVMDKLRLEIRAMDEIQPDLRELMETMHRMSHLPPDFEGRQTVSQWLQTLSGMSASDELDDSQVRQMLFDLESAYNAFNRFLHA
T2 sequence (Q9H9H4 whole entry, chain 3 of 4, other chains not shown): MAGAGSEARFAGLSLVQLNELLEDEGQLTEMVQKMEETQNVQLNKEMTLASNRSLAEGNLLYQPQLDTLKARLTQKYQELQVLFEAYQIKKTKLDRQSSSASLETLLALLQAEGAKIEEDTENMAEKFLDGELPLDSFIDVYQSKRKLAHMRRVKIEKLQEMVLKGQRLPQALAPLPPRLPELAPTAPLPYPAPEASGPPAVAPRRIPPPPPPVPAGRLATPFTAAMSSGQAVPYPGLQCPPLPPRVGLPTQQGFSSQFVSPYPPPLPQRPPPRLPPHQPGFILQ

- binding result [1]: binds
- binding result [2]: binds
B1: ALG-2, fluorescently labeled (Atto 488) via A78C (natural protein, UniProt O75340 1-191, looked up)
chain: MAAYSYRPGPGAGPGPAAGAALPDQSFLWNVFQRVDKDRSGVISDTELQQALSNGTWTPFNPVTVRSIISMFDRENKCGVNFSEFTGVWKYITDWQNVFRTYDRDNSGMIDKNELKQALSGFGYRLSDQFHDILIRKFDRQGRGQIAFDDFIQGCIVLQRLTDIFRRYDTDQDGWIQVSYEQYLSMVFSIV
modifications: Atto 488 maleimide on the cysteine of A78C (25% labeling efficiency)
notes: also called ALG-2 (Atto 488); labeled ALG-2; source: E. coli BL21 (DE3), purified (Ni-NTA, gel filtration, anion exchange, gel filtration)

Reference: PMC9436306 (Proceedings of the National Academy of Sciences of the …, 2022)
